Reference: patent publication US7732563B2, “Cloning, sequencing and expression of a gene encoding an eukaryotic amino acid racemase, and diagnostic, therapeutic, and vaccination applications of parasite and viral mitogens” (priority 1999, dated 2010)

Assays:
rTcPA45 proline racemase = biological target: T1, rTcPA45 proline racemase (Trypanosoma cruzi, UniProt Q4DA80); format: biochemical
T1 construct: made in house; host or cells: E. coli (pET28b(+))
Method: To investigate the genomic organization and transcription of the Tc45 gene, Southern and Northern blot analyses were done. FIG. 4 depicts the results of characterization of rTcPA45 activities. FIG. 4, part a, is an 8% SDS-PAGE gel of rTcPA45 (Coomasie blue staining). Part b depicts the proliferative activity of total splenocytes (5×10^4 cells/well) in the presence of increasing concentrations of rTcPA45 (μg/ml). […] Reaction conditions were: 0.2 M Na-acetate/25 mM β-mercaptoethanol buffer, pH6, rTcPA45 (3 μg/ml), 30 min incubation at 37° C. in 500 μl. The reaction was stopped by incubating for 10 min at 80° C. […] Reactions were carried out for 30 min at 37° C. and stopped for 5 min at 80° C. All reagents and inhibitors were purchased from Sigma. The shift in optical rotation was measured in a Polarimeter 241 MC (Perkin Elmer).
3 μg of rTcPA45 was diluted in 500 μl of buffer (0.2M NaOAc, […] β-mercaptoethanol, pH6.0) containing different concentrations of the substrate (10-80 mM or L- or D-proline). (See FIG. 4c.) The reaction was incubated for 30-60 minutes at 37° C. in a water bath, followed by heat inactivation of the enzyme for 10 minutes at 80° C. Each sample is diluted to 1.5 ml with water and the mixture submitted to measurement of optical rotation using a polarimeter, at 365 nm. A sample without enzyme is used as a control. For optimal pH determination, buffer systems with NaOAc, phosphate, and Tris were used with pH ranging from 4.0-8.2. Curve of temperature was performed between 27° C. to 47° C.
The percent of racemization of different concentrations of L-proline, D-proline, L-hydroxy-proline and D-hydroxy-proline substrates was calculated by incubating a 500-μl mixture of 3 μg TcPA45 and 10-80 mM substrate in 0.2 M sodium acetate and 25 mM β-mercaptoethanol, pH 6, for 30 min at 37° C. The reaction was stopped by incubation for 10 min at 80° C. Water (1 ml) was then added, and the optical rotation was measured in polarimeter 241 MC (Perkin Elmer, Montignyle Bretonneux, France) at a wavelength of 365 nm, in a cell with a path length of 10 cm. The percent inhibition of racemization of 80 mM L-proline was determined in the presence of different concentrations of several specific and nonspecific inhibitors ranging in concentration from 6 mM to 100 mM. The percent racemization of 80 mM L-proline as a function of pH was determined using 0.2 M sodium acetate, potassium phosphate and Tris-HCl buffers containing 25 mM β-mercaptoethanol; reactions were incubated for 30 min at 37° C. as described above. All reagents and inhibitors were purchased from Sigma.

[1] = tested on: spleen cells / Ig-producing B cells; assay: Mitogenicity of rTcPA45 in vivo assessed by ELISPOT; set-up: species or system mouse
Method: BALB/c mice were injected or not with 50 μg of rTcPA45 (i.p.), and spleen cells assayed day 7 after injection. Results represent total numbers of spleen cells, total number of B cells producing IgM, IgG2a, or IgG2b isotypes, and total numbers of isotype-producing B cells specific of the protein.
Mice were injected or not with 50 μg of iTcPA45 (i.p.). […] Numbers of Ig-secreting cells (total or specific to rTcPA45) were determined by Elispot assay, as follows:
Flat bottomed 96 well ELISA plates, were coated with either goat anti-mouse Ig or with rTcPA45 and incubated at 4° C. overnight. Plates were blocked with PBS-gelatin, washed with PBS-Tween and with RPMI medium. 100 μl of different spleen cell concentrations per well (in RPMI containing 2% FCS) were incubated for 8 hours at 37° C., 5% CO2. A row in the plate containing serial dilutions of purified immunoglobulin (IgM, IgG2a, or IgG2b) was used as standard. After lysis of the cells with H20-Tween, plates were then washed with PBS-Tween and incubated with respective biotin-labeled antibodies directed to (IgM, IgG2b, or IgG2a isotypes), overnight at 4EC. After washing, plates were incubated for 45-60 minutes with avidin-alkaline phosphatase and further incubated with substrate (2-amino-2-methyl-propanol buffer containing BCIP) 2-4 hours, 37° C. (until the spots are “dark” blue). Spots correspond to immunoglobulin-producing B-cell (of a particular isotype) directed to the coated antigen (here: goat anti-mouse immunoglobulins or rTcPA45). Spots are then counted and numbers corrected to total number of spleen cells according to the dilution. (See Table I and FIG. 7.)

Trypanosoma cruzi = assay: rTcPA45 sub-mitogenic immunization followed by infective challenge, parasitemia; format: in vivo
Method: FIG. 14B. rTcPA45 injection. 6 week old BALB/c mice were injected intraperitoneally (i.p.) with 10 ηg of rTcPA45 and then boosted i.p. one week later with 50 μg of rTcPA45. Mice were challenged 1 week after the boost with 10^4 infective forms of the parasite/mouse, and the parasitemia was scored during 30 days.
As with classical B cell mitogens, rTcPA45 mitogenicity is dose-dependent (FIG. 1). As for classical B cell mitogens, mouse specific immune responses directed to mitogenic rTcPA45 is indeed possible (Western blot FIG. 12) following a protocol of immunization which consisted of with 1 injection (i.p.) of a sub-mitogenic (10 ng/mouse) dose of the protein followed by an additional boost with a mitogenic dose of rTcPA45 (50 μg/mouse) one week later.
These additional results do support the claim that mitogenic moieties are potential targets for vaccination approaches against Trypanosoma cruzi infection. (See FIG. 14(b).)

[2] = pH 6, 3 μg rTcPA45, 30 min at 37° C.
[3] = BALB/c mice, 50 μg/mouse i.p., 7 days after injection

B1: rTcPA45: recombinant T. cruzi polyclonal activator 45, B-cell mitogen and proline racemase, codons 30-423 with C-terminal 6×His tag, from E. coli (protein)
chain: RTGQEKLLFDQKYKIIKGEKKEKKKNQRANRREHQQKREIMRFKKSFTCIDMHTEGEAARIVTSGLPHIPGSNMAEKKAYLQENMDYLRRGIMLEPRGHDDMFGAFLFDPIEEGADLGMVFMDTGGYLNMCGHNSIAAVTAAVETGIVSVPAKATNVPVVLDTPAGLVRGTAHLQSGTESEVSNASIINVPSFLYQQDVVVVLPKPYGEVRVDIAFGGNFFAIVPAEQLGIDISVQNLSRLQEAGELLRTEINRSVKVQHPQLPHINTVDCVEIYGPPTNPEANYKNVVIFGNRQADRSPCGTGTSAKMATLYAKGQLRIGETFVYESILGSLFQGRVLGEERIPGVKVPVTKDAEEGMLVVTAEITGKAFIMGFNTMLFDPTDPFKNGFTLKQ
modifications: left off: small tags and cut ends
rTcPA45 proline racemase; 80 mM L-proline, buffers pH 4.0-8.2
  pH of maximal proline racemase activity: 6
rTcPA45 proline racemase; 10 min heating at 80° C.
  enzyme stability to heating: inactivated
rTcPA45 proline racemase; [2]
  racemisation of L- and D-proline substrates: racemises
  racemisation of L- or D-hydroxy-proline and other natural L-amino acids: not
rTcPA45 proline racemase; tested between 27° C. and 47° C.
  optimal temperature for enzymatic activity: 37 °C
[1]; 50 μg rTcPA45 i.p., day 7
  Ig-secreting B cells directed to TcPA45: complete lack
  IgM secreting cells directed to the injected protein: less than 0.5%
  increase in total numbers of Ig-secreting B cells (IgM, IgG2a, IgG2b isotypes): 3-6 fold
  increase in total spleen cell numbers: 2 fold
[1]; 50 μg rTcPA45 in vivo, by day 4
  increase in spleen cell numbers: 2 fold
[1]; 50 μg rTcPA45 in vivo, day 4
  rTcPA45-specific Ig-secreting B cells: complete lack
[1]; [3]
  Total Number of Ig-producing B cells ANTI-rTc45MIT: IgG2a-B cells anti 45: none
  Total Number of Ig-producing B cells ANTI-rTc45MIT: IgG2b-B cells anti 45: none
  Total Number of Ig-producing B cells ANTI-rTc45MIT: IgM-B cells anti 45: 84
  Total Number of Ig-producing B cells: IgG2a-producing cells: 9866 ± 3000
  Total Number of Ig-producing B cells: IgG2b-producing cells: 14633 ± 3287
  Total Number of Ig-producing B cells: IgM-producing cells: 371666 ± 94495
Trypanosoma cruzi; BALB/c mice, 10 ng i.p. then boost 50 μg i.p. one week later, challenge 10^4 parasites/mouse
  parasitemia control: 90-95%
Trypanosoma cruzi; sub-mitogenic doses of active rTcPA45 intraperitoneally 2 weeks before infective challenge
  parasitemia control compared with DNA vaccination (85% decrease): even higher levels of parasitemia control
